No end group written: not given here.
T1: NPR-C (Homo sapiens, UniProt P17342)
T1 construct: expressed in transfected cells; host or cells: HEK293, transient, pCDNA1.1 (CMV promoter)
T1 sequence (P17342 27-541): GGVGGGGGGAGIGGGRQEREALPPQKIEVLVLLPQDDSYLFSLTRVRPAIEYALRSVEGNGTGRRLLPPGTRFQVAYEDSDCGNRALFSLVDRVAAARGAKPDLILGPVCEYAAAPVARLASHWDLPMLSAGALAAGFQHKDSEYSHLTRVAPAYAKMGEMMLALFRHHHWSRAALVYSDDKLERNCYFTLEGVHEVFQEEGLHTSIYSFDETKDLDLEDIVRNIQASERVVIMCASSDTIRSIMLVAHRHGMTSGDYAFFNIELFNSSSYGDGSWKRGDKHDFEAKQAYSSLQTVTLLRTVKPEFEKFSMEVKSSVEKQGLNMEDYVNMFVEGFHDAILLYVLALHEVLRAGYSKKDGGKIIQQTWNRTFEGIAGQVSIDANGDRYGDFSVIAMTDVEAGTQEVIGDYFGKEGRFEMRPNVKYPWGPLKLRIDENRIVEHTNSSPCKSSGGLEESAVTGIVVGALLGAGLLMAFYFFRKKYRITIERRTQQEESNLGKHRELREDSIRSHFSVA

T2: rat GC-A (Rattus norvegicus, UniProt P18910)
T2 construct: expressed in transfected cells; host or cells: HEK293, transient, CMV-driven pBK plasmid (gift of Dr. A. De Léan)
T2 sequence (P18910 29-1057): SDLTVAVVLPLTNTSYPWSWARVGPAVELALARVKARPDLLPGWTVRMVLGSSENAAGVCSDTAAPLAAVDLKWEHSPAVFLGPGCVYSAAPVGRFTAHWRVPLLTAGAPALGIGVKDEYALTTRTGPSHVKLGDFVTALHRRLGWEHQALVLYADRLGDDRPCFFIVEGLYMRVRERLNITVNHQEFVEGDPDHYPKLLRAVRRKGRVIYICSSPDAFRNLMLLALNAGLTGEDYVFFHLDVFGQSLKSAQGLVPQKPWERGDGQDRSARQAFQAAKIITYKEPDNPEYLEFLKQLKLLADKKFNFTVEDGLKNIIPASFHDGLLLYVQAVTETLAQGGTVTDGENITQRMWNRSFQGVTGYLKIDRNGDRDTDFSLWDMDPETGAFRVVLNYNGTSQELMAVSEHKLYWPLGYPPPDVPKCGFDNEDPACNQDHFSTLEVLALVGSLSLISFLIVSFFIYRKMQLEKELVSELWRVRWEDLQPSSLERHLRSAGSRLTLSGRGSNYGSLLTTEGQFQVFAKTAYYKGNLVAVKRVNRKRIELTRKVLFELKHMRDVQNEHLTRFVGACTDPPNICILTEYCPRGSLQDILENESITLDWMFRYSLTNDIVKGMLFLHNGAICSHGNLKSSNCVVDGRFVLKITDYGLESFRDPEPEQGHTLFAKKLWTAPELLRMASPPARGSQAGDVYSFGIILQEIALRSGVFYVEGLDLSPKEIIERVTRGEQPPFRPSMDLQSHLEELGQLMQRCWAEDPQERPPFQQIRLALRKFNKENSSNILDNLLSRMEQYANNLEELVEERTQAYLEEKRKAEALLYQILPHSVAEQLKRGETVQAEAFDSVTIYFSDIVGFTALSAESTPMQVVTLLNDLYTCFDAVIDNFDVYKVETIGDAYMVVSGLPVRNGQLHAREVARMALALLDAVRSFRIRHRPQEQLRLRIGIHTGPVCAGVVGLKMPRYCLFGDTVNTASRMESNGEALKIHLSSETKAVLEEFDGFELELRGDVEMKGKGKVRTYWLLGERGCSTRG

T3: human GC-B (Homo sapiens, UniProt P20594)
T3 construct: expressed in transfected cells; host or cells: HEK293, transient, pCDNA1.1 (CMV promoter)
T3 sequence (P20594 23-1047): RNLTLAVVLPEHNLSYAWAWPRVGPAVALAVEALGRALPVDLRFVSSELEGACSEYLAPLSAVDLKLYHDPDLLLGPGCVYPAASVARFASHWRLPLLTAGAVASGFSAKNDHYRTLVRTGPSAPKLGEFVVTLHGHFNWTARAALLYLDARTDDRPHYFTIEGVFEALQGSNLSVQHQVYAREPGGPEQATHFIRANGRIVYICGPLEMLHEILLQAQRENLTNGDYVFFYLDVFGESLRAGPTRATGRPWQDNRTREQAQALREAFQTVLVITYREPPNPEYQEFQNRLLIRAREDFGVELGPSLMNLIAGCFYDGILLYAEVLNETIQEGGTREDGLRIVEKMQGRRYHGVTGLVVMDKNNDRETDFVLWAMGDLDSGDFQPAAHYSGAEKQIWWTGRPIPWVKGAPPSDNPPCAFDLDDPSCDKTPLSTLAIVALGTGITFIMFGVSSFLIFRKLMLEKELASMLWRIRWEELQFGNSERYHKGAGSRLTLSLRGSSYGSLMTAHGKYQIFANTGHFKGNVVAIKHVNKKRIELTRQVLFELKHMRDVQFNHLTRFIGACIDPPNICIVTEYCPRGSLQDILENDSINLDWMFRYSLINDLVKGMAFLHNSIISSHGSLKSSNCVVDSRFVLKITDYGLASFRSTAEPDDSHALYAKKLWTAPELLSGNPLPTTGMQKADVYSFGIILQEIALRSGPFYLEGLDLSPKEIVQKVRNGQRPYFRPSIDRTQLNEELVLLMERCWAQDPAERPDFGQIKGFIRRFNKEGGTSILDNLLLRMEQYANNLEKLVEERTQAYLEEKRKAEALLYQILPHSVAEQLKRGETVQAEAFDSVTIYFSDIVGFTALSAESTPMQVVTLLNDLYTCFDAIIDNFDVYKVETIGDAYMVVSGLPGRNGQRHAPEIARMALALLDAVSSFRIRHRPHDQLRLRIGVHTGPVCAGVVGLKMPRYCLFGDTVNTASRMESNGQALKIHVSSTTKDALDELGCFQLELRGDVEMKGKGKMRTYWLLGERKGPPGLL


Key:
[1] = target: T1, NPR-C; experiment: Competition of PLAP-Ostn binding on NPR-C over-expressing cells; settings: ~30 nM PLAP-Ostn, NPR-C transfected cells; read-out: concentration competing off 50% of the binding of PLAP-mOstn
Description: (§1) The expression plasmid for rat GC-A containing the entire coding sequence cloned between the NheI-KpnI sites of CMV-driven pBK plasmid (Stratagene, La Jolla, Calif.) was kindly provided by Dr. A. De Léan (Département de Pharmacologie, Université de Montréal). The human NPR-C and GC-B coding sequences were amplified by RT-PCR from human embryonic kidney polyA RNA (Clontech, Palo Alto, Calif.) with the following primer pairs: NPR-C-5′-[…]-3′(forward) (SEQ ID NO: 74) and 5′-[…]-3′ (SEQ ID NO: 75) (reverse); GC-B-5′-[…]-3′ (SEQ ID NO: 76) (forward) and 5′-[…]-3′ (SEQ ID NO: 77) (reverse). The resulting PCR products were then cloned downstream of the CMV-promoter into the pCDNA1.1 plasmid (Invitrogen, Burlington, ON, Canada). All constructs were validated by DNA sequencing.

[2] = target: T2, rat GC-A; experiment: PLAP-Ostn binding to GC-A transfected HEK293 cells; settings: cells overexpressing GC-A (not shown)
Description: as §1
(§2) To analyze the potential binding of Ostn to natriuretic receptors, a fusion protein (PLAP-Ostn) (FIG. 6) was generated as described above. This fusion protein comprised an N-terminal secreted placental alkaline phosphatase (PLAP) moiety linked to mature mouse Ostn (residues 29-130) (SEQ ID NO: 62). Conditioned media containing PLAP-mOstn was used to assess Ostn binding on transiently transfected cells.
(§3) Expression vectors for the coding sequence of GC-A, GC-B and NPR-C were constructed, transfected into human embryonic kidney (HEK) 293 cells and the cells incubated with either 37 nM PLAP or the PLAP-Ostn fusion. […]

[3] = target: T3, human GC-B; experiment: PLAP-Ostn binding to GC-B transfected HEK293 cells; settings: cells overexpressing GC-B
Description: as §1, §2, §3

Molecule	IC50 [1] [nM]	specific binding [2]	specific binding [3]
YDHSKKRFGIPMDRIGRNRLSNSR-NH2 [Ostn[107-129]]	1 to 10		
PLAP-mOstn: fusion protein: N-terminal secreted placental alkaline phosphatase moiety linked to mature mouse Ostn residues 29-130 (SEQ ID NO: 70) (protein) DAAQPARRARRTYEAYVRSSGIIPVEEENPDFWNREAAEALGAAKKLQPAQTAAKNLIIFLGDGMGVSTVTAARILKGQKKDKLGPEIPLAMDRFPYVALSKTYNVDKHVPDSGATATAYLCGVKGNFQTIGLSAAARFNQCNTTRGNEVISVMNRAKKAGKSVGVVTTTRVQHASPAGTYAHTVNRNWYSDADVPASARQEGCQDIATQLISNMDIDVILGGGRKYMFPMGTPDPEYPDDYSQGGTRLDGKNLVQEWLAKRQGARYVWNRTELMQASLDPSVTHLMGLFEPGDMKYEIHRDSTLDPSLMEMTEAALRLLSRNPRGFFLFVEGGRIDHGHHESRAYRALTETIMFDDAIERAGQLTSEEDTLSLVTADHSHVFSFGGYPLRGSSIFGLAPGKARDRKAYTVLLYGNGPGYVLKDGARPDVTESESGSPEYRQQSAVPLDEETHAGEDVAVFARGPQAHLVHGVQEQTFIAHVMAFAACLEPYTACDLAPPAGTTDAAHPGYLDLASQEFGTASLQSPPTAREEKSATELSAKLLRLDDLVSLENDVFETKKKRSFSGFGSPLDRLSAGSVEHRGKQRKAVDHSKKRFGIPMDRIGRNRLSSSRG		No specific binding	No specific binding

Reference: patent US7470668B2, “Method of use of specific natriuretic peptide receptor c ligands, transgenic non-human mammals expressing specific natriuretic peptide receptor c antagonists and cells thereof” (Enobia Pharma Inc., priority 2005, dated 2008)
